Test results taken from US20050118183A1 (IMMUNOGEN, published 2005).

B1: My9-6-DM1 immunoconjugate (antibody, IgG1, V domains shown)
VH: QVQLQQPGAEVVKPGASVKMSCKASGYTFTSYYIHWIKQTPGQGLEWVGVIYPGNDDISYNQKFKGKATLTADKSSTTAYMQLSSLTSEDSAVYYCAREVRLRYFDVWGAGTTVTVSS
VL: NIMLTQSPSSLAVSAGEKVTMSCKSSQSVFFSSSQKNYLAWYQQIPGQSPKLLIYWASTRESGVPDRFTGSGSGTDFTLTISSVQSEDLAIYYCHQYLSSRTFGGGTKLEIKR
modifications: DM1 (thiol-containing maytansinoid) linked by disulfide through SPP; 3-5 pyridyldithio groups introduced per molecule of antibody; residues and chain not stated

What was measured:
CD33 (human) [1] = biological target: CD33 (human) (UniProt P20138); assay: direct binding on HL-60 whole cells; direct on cells
Chain of CD33 (human) (P20138 18-364): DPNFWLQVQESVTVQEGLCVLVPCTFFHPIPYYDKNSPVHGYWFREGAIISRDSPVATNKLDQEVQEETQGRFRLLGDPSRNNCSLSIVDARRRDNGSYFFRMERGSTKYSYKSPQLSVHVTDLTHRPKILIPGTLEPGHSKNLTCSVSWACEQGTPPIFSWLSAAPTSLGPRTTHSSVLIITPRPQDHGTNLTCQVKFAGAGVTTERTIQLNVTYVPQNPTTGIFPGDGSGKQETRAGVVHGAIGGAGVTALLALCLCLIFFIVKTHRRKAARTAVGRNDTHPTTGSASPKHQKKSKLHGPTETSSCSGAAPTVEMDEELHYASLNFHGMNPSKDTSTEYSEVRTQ

CD33 (human) [2] = biological target: CD33 (human) (UniProt P20138); assay: competitive binding on HL-60 membranes; competitive on membranes
CD33 (human) [3] = biological target: CD33 (human) (UniProt P20138); assay: direct binding on HL-60 membranes; direct on membranes
CD33 = biological target: T1, CD33 (human, UniProt P20138 18-364); assay: flow cytometry on HL-60 cells
T1 construct: whole, on cells; Presented on U-937 cells, HL-60 whole cells, dried HL-60 plasma membranes, THP-1 cells and CD33-transfected 3T3 murine fibroblasts; also called CD33 antigen; human CD33
T1 sequence (P20138 18-364): as above
Procedure: HL-60 cells were incubated with various concentrations of either My9-6 antibody or My9-6-DM1. The cells were then washed and incubated with a secondary FITC-labeled anti-murine IgG antibody. Following an additional wash, cells were fixed with 2% formaldehyde and cell-associated fluorescence was quantified using a BD FACScan flow cytometer.

| Molecule | Kd (CD33 (human) [1]) [nM] | Kd (CD33 (human) [2]) [nM] | Kd (CD33 (human) [3]) [nM] | binding result (CD33) |
| --- | --- | --- | --- | --- |
| murine My9-6 antibody | 1.1 | 0.174 | 0.0513 | – |
| B1 | – | – | – | binds |
